Assay results taken from patent publication US6403765B1, “Truncated Apaf-1 and methods of use thereof” (Thomas Jefferson University, priority 1998, dated 2002).
Numbering of substitutions follows the chain as printed. Names may count otherwise. Each block holds one molecule with its values, some of them ahead of it.

Tests used:
procaspase-9 = target: T1, procaspase-9 (Homo sapiens, UniProt P55211); assay: In vitro caspase 9 activation assay: recombinant Apaf-1 variants incubated with in vitro translated procaspase-9; assay type: biochemical; conditions: bacterial lysates with truncated Apaf-1 variants, FIG. 2B
T1 construct: schematic representation of full length procaspase-9; made in house; host or cells: coupled in vitro transcription/translation in rabbit reticulocyte lysate (TNT Kit, Promega)
T1 sequence (P55211 1-416): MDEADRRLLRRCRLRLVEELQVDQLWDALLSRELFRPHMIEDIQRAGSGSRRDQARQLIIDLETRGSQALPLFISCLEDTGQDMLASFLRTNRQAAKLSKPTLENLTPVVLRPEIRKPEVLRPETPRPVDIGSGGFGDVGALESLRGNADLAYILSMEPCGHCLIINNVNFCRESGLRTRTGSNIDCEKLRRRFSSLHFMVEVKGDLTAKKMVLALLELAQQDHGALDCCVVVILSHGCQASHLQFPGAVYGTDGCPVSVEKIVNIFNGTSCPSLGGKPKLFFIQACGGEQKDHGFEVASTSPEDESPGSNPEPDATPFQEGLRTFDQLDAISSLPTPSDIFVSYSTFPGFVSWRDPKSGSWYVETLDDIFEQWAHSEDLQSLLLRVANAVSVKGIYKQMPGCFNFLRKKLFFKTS
Procedure: SDS sample buffer was then added to each sample, boiled and subjected to SDS-PAGE analysis followed by autoradiography. In FIG. 2A procaspase-9 was in vitro translated in the presence of ^35S-methionine. Following translation procaspase-9 was desalted by gel filtration through a biospin column (BioRad) to remove unincorporated methionine and free nucleotides. Desalted procaspase-9 was then incubated with 200 ng Ni^2+-affinity purified bacterially expressed recombinant Apaf-530 (WT or K149R mutant) in the presence or absence of cytochrome c or dATP or both for 2 h at 30° C. A mock sample containing Ni^2+-affinity purified material from bacteria transformed with an empty vector was used as a negative control. Following incubation the products were analyzed by SDS-PAGE and autoradiography. In FIG. 2B^35S-labeled procaspase-9 (as described above) was incubated with bacterial lysates containing truncated Apaf-1 variants as indicated and then analyzed as above (2B upper panel). The bacterial lysates were analyzed by SDS-PAGE and immunoblotted with an Apaf-1 antibody which recognizes the N-terminus of Apaf-1 (lanes 2-6) and an anti T7-tag antibody (lanes 7-8) to confirm expression and equivalent concentration of the different Apaf-1 variants (2B lowerpanel). The molecular mass markers are indicated to the right of the lower panel.
^35S-labeled caspases were obtained by in vitro translation in the presence of ^35S-methionine using a coupled transcription/translation system in rabbit reticulocyte lysate using TNT Kit (Promega) according to the manufacturer's recommendations.
To determine the role of the WD-40 repeat in the mechanism of Apaf-1-induced processing of procaspase-9, truncated Apaf-1 (Apaf-530) lacking its WD-40 repeats (FIG. 1) was expressed and purified. To reconstitute a recombinant caspase-9 activation system, the truncated Apaf-530 was incubated with in vitro translated recombinant procaspase-9 in the presence or absence of cytochrome c and dATP. […] It was previously shown that mutation of CED-4 K165R which is required for nucleotide binding destroys its activity (Chinnaiyan et al., Nature 388:728-729, 1997; Jarnes et al., Curr. Biol. 7:246-252, 1997; Seshagiri and Miller, Curr. Biol. 7:455-460, 1997). […] Therefore, either binding of Apaf-1 to cytochrome c and dATP or deletion of the repeats could induce a conformational change enabling Apaf-1 to bind and process procaspase-9.
In FIG. 3, ^35S-labeled WT or mutant D330A, D315A or C287A mutants of procaspase-9 or prodomainless procaspase-9 (Δpro, residues 134-416) were incubated with buffer (lanes 1, 4, 7, 10, 13), purified Apaf-530 (lanes 2, 5, 8, 11, 14) or mock purified material (lanes, 3, 6, 9, 12, 15) and then analyzed by SDS-PAGE and autoradiography.

T7-tagged Bcl-xL = target: T2, T7-tagged Bcl-xL (Homo sapiens, UniProt Q07817); assay: Co-immunoprecipitation of Flag-tagged Apaf-1 variants or procaspase-9 with T7-tagged Bcl-xL in 293 cells; assay type: binding; conditions: anti-Flag immunoprecipitation, anti-T7 blot, 36 hours, FIG. 16
T2 construct: expressed in transfected cells; host or cells: 293 cells
T2 sequence (Q07817 whole entry): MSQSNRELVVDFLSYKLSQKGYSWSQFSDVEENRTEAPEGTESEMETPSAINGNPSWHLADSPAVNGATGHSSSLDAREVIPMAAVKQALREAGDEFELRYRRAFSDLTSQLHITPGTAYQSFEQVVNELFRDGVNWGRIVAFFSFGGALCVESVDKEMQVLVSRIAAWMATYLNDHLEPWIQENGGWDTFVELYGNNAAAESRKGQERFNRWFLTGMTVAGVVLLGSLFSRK
Procedure: In vivo interaction experiments between Apaf-1 variants and Bcl-xL were performed. To analyze the ability of Apaf-1 to interact with Bcl-xL, 293 cells were co-transfected with constructs encoding T7-tagged Bcl-xL and constructs encoding Flag-tagged Apaf-97 (FIG. 16, lane 1), Apaf-1 (FIG. 16, lane 2), Apaf-530 (FIG. 16, lane 3) Apaf-530ΔCARD (FIG. 16, lane 4), or procaspase-9 C287A (FIG. 16, lane 5). After 36 hours, extracts were prepared and immunoprecipitated with a monoclonal antibody to the Flag epitope. The immunoprecipitates (FIG. 16, upper panel) were analyzed by SDS-PAGE and immunoblotted with a horseradish peroxidase-conjugated T7 antibody. The corresponding cellular extracts were also analyzed by SDS-PAGE and immunoblotted with a horseradish peroxides-conjugated T7 antibody (FIG. 16, middle panel) or an anti-Flag antibody (FIG. 16, lower panel).

activity of the Apaf-1 variant in promoting activation of procaspase-9 (procaspase-9): further reduced its activity
B1: Apaf-350: truncated Apaf-1, residues 1-350 (protein, UniProt O14727 1-350, looked up, fragment)
chain: MDAKARNCLLQHREALEKDIKTSYIMDHMISDGFLTISEEEKVRNEPTQQQRAAMLIKMILKKDNDSYVSFYNALLHEGYKDLAALLHDGIPVVSSSSGKDSVSGITSYVRTVLCEGGVPQRPVVFVTRKKLVNAIQQKLSKLKGEPGWVTIHGMAGCGKSVLAAEAVRDHSLLEGCFPGGVHWVSVGKQDKSGLLMKLQNLCTRLDQDESFSQRLPLNIEEAKDRLRILMLRKHPRSLLILDDVWDSWVLKAFDSQCQILLTTRDKSVTDSVMGPKYVVPVESSLGKEKGLEILSLFVNMKKADLPEQAHSIIKECKGSPLVVSLIGALLRDFPNRWEYYLKQLQNKQF

less activity than Apaf-530 in promoting procaspase-9 processing (procaspase-9): ~90%
B2: Apaf-420: truncated Apaf-1, residues 1-420, minimal conserved sequence between Apaf-1 and CED-4 (protein, UniProt O14727 1-420, looked up, fragment)
chain: MDAKARNCLLQHREALEKDIKTSYIMDHMISDGFLTISEEEKVRNEPTQQQRAAMLIKMILKKDNDSYVSFYNALLHEGYKDLAALLHDGIPVVSSSSGKDSVSGITSYVRTVLCEGGVPQRPVVFVTRKKLVNAIQQKLSKLKGEPGWVTIHGMAGCGKSVLAAEAVRDHSLLEGCFPGGVHWVSVGKQDKSGLLMKLQNLCTRLDQDESFSQRLPLNIEEAKDRLRILMLRKHPRSLLILDDVWDSWVLKAFDSQCQILLTTRDKSVTDSVMGPKYVVPVESSLGKEKGLEILSLFVNMKKADLPEQAHSIIKECKGSPLVVSLIGALLRDFPNRWEYYLKQLQNKQFKRIRKSSSYDYEALDEAMSISVEMLREDIKDYYTDLSILQKDVKVPTKVLCILWDMETEEVEDILQEFVN

co-immunoprecipitation with Bcl-xL (T7-tagged Bcl-xL): capable of immunoprecipitating
B3: procaspase-9: Flag-tagged procaspase-9 C287A co-transfected with T7-tagged Bcl-xL (protein, UniProt P55211 1-416, looked up, variant C287A)
pro-form: T1 sequence (P55211 1-416) with C287A
modifications: pro-form Flag tag
notes: Flag-tagged procaspase-9 C287A co-transfected with T7-tagged Bcl-xL

activity of the Apaf-1 variant in promoting activation of procaspase-9 (procaspase-9): inactive
B4: Apaf-WD: WD-40 repeat region of Apaf-1, residues 530-1194 (protein, UniProt O14727 530-1194, looked up, fragment)
chain: RHILDEKDCAVSENFQEFLSLNGHLLGRQPFPNIVQLGLCEPETSEVYQQAKLQAKQEVDNGMLYLEWINKKNITNLSRLVVRPHTDAVYHACFSEDGQRIASCGADKTLQVFKAETGEKLLEIKAHEDEVLCCAFSTDDRFIATCSVDKKVKIWNSMTGELVHTYDEHSEQVNCCHFTNSSHHLLLATGSSDCFLKLWDLNQKECRNTMFGHTNSVNHCRFSPDDKLLASCSADGTLKLWDATSANERKSINVKQFFLNLEDPQEDMEVIVKCCSWSADGARIMVAAKNKIFLFDIHTSGLLGEIHTGHHSTIQYCDFSPQNHLAVVALSQYCVELWNTDSRSKVADCRGHLSWVHGVMFSPDGSSFLTSSDDQTIRLWETKKVCKNSAVMLKQEVDVVFQENEVMVLAVDHIRRLQLINGRTGQIDYLTEAQVSCCCLSPHLQYIAFGDENGAIEILELVNNRIFQSRFQHKKTVWHIQFTADEKTLISSSDDAEIQVWNWQLDKCIFLRGHQETVKDFRLLKNSRLLSWSFDGTVKVWNIITGNKEKDFVCHQGTVLSCDISHDATKFSSTSADKTAKIWSFDLLLPLHELRGHNGCVRCSAFSVDSTLLATGDDNGEIRIWNVSNGELLHLCAPLSEEGAATHGGWVTDLCFSPDGKMLIS
